Results: paper PMC6102255, “EPO does not promote interaction between the erythropoietin and beta-common receptors” (Scientific Reports, 2018)

B1: extracellular regions of the beta-common (βc) receptor, in-house purified (domain or fragment, UniProt P32927 17-443, looked up)
chain: WERSLAGAEETIPLQTLRCYNDYTSHITCRWADTQDAQRLVNVTLIRRVNEDLLEPVSCDLSDDMPWSACPHPRCVPRRCVIPCQSFVVTDVDYFSFQPDRPLGTRLTVTLTQHVQPPEPRDLQISTDQDHFLLTWSVALGSPQSHWLSPGDLEFEVVYKRLQDSWEDAAILLSNTSQATLGPEHLMPSSTYVARVRTRLAPGSRLSGRPSKWSPEVCWDSQPGDEAQPQNLECFFDGAAVLSCSWEVRKEVASSVSFGLFYKPSPDAGEEECSPVLREGLGSLHTRHHCQIPVPDPATHGQYIVSVQPRRAEKHIKSSVNIQMAPPSLNVTKDGDSYSLRWETMKMRYEHIDHTFEIQYRKDTATWKDSKTETLQNAHSMALPALEPSTRYWARVRVRTSRTGYNGIWSEWSEARSWDTESVLPMW
modifications: biotin (EZ link sulfo-NHS biotin) when immobilised in SPR; unmodified otherwise
notes: beta common receptor (βc, shared subunit of the GM-CSF, IL-3 and IL-5 receptors), extracellular regions; Used in SEC, MST, SPR and AUC; Plasmid donated by Dr. Timothy Hercus; purification details are in the Supplementary data; also called βc homodimer; CD131

Columns and labels:
[1] = target: extracellular domains of the erythropoietin receptor (EPOR), in-house purified (UniProt P19235); test: MST; EPOR labelled with DyLight 650 (30 nM), unlabelled EPOR titrated (0.05-1700 nM); 50 mM Tris, 10 mM MgCl2, 150 mM NaCl, 0.05% Tween 20, pH 7.5; 60% laser power; homodimer to monomers, no EPO
[2] = target: the molecule itself; test: AUC; sedimentation velocity, 20 °C, 50,000 rpm, 10 mM HEPES, 500 mM NaCl pH 7.2; single proteins (EPO 3 μM; EPOR 1.5, 3, 6 μM; βc 0.75, 1.5, 3 μM) and mixtures of two (EPO + EPOR; βc + EPOR)

Molecule	Kd [1] [nM]	stoichiometry N [2]
extracellular domains of the erythropoietin receptor (EPOR), in-house purified (from UniProt P19235 25-250) (domain or fragment)	166	–
B1	–	2
